Data from publication PMC10629557, “Regulation of replication origin licensing by ORC phosphorylation reveals a two-step mechanism for Mcm2-7 ring closing” (Proceedings of the National Academy of Sciences of the …, 2023).

B1: FLAG-Clb5-Cdk1 (complex)
chain 1: MGENHDHEQSIKRNSMIYNENERQLCNSNLKILQNKRALSKNDSSSKQQVQDSKPRRALTDVPVNNNPLSQNKRIVAGSKAAKVRREENIRPIVSAVQKRQIYNDRTAAEQEEEEEEEGEDDDAASIVNKKRRIDAEGVSEIVGWQDLDYVEKDDTAMVAEYSAEIFAFLYRRELETLPSHNYLLDKTSKYYLRPSMRTILVDWLVEVHEKFQCYPETLFLSINLMDRFLAKNKVTMNKLQLLAVTSLFIAAKFEEVNLPKLAEYAYITDGAASKNDIKNAEMFMLTSLEFNIGWPNPLNFLRRISKADDYDPVNRNIGKFILEYAYCCHQFIHLPPSTVSAMAMYIARRMTNRNKNELWNGTLQHYSGGIDPIHDEAFQSLCIDLVKDIASSKTHLDSLILKYKKPRYGSVYFQTFKWCTSEMHSNFQNLFNLK
chain 2: not shown
notes: Clb5, S-phase B-type cyclin, S. cerevisiae; Cdk1 (Cdc28), cyclin-dependent kinase, S. cerevisiae; also called Clb5-Cdc28; source: S. cerevisiae strain ySK119, purified

Legend:
FLAG-Clb5-Cdk1 = target: B1; assay: co-IP; purified proteins: 5 pmol FLAG-Clb5-Cdk1 and 10 pmol ORC in 20 uL SM buffer with 1 mM ATP, 20 min; 10 pmol GST-Sic1 added to one of two reactions for 5 min; magnetic anti-Flag beads, 3 washes, elution with 3xFLAG peptide, SDS gel; conditions: both partners purified
[1] = target: T1, origin recognition complex (ORC), wild type, unphosphorylated (S. cerevisiae, UniProt P54784 1-914; P32833 1-620; P54790 1-616; P54791 1-529; P50874 1-479; P38826 …); assay: as above; conditions: both partners purified
T1 construct: Orc1, subunit of the origin recognition complex, S. cerevisiae; Orc2, subunit of the origin recognition complex, S. cerevisiae; Orc3, subunit of the origin recognition complex, S. cerevisiae; Orc4, subunit of the origin recognition complex, S. cerevisiae; Orc5, subunit of the origin recognition complex, S. cerevisiae; Orc6, subunit of the origin recognition complex, S. cerevisiae; For the …

Sequence of FLAG-Clb5-Cdk1 (P00546 whole entry): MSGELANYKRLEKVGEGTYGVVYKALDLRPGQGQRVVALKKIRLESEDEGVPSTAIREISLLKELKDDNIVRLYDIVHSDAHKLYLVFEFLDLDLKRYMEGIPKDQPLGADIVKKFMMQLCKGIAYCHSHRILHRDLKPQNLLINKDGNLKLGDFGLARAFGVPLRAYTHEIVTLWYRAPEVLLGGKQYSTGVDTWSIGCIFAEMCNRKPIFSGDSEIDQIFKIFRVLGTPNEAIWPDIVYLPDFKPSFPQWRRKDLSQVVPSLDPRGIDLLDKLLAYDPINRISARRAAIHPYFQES

Row | binding result (FLAG-Clb5-Cdk1) | binding result [1] | Binder
1 | binds | – | GST-Sic1 (natural protein, S. cerevisiae, UniProt P38634 1-284, looked up, source: E. coli BL21-DE3-Rosetta (plasmid pGEX-Sic1), purified (glutathione elution)) MTPSTPPRSRGTRYLAQPSGNTSSSALMQGQKTPQKPSQNLVPVTPSTTKSFKNAPLLAPPNSNMGMTSPFNGLTSPQRSPFPKSSVKRTLFQFESHDNGTVREEQEPLGRVNRILFPTQQNVDIDAAEEEEEGEVLLPPSRPTSARQLHLSLERDEFDQTHRKKIIKDVPGTPSDKVITFELAKNWNNNSPKNDARSQESEDEEDIIINPVRVGKNPFASDELVTQEIRNERKRAMLRENPDIEDVITYVNKKGEVVEKRRLTDEEKRRFKPKALFQSRDQEH
2 | – | binds | B1
